Earlier results as cited in article PMC3760879.

Molecular target: Asp97 (UniProt position 97, VFRYIDWLLTV)
Conditions: dark/ground state implied (protonation of the acceptor group at neutral pH); not explicitly stated

## Proteorhodopsin (PR) (uncultured marine gamma-proteobacterium (the article says only 'γ-proteobacteria'))
  pKa: around 7.2
